# Target: human HLA-A2 MHC class I molecule on the surface of target cells with no C2 epitope-peptide delivered or added (human)
# Assay: flow cytometry, TCR STAR multimer staining of untreated (buffer only) target cells
substance,measurement,value
TCR CMV-pp65-PE STAR multimer reagent (Altor Bioscience Corp.),percent of cells stained,< 5%

# Source: patent US20180243432A1
